Test results published in the supplement of paper PMC9942255.
Several values for one entry are separate records, joined by “and”; a condition that tells them apart may be missing. Equal values may be shown once.

Test system: Bacillus subtilis DB104 (SP-AmyQ fusion secretion)
Assay: AmyQ secretion efficiency, weighted average sort bin (1 = best secretion, 10 = worst) (bin number (weighted average, 1-10)); higher = lower secretion efficiency
Summary of the method: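 Occupied alginate beads were sorted by large-particle flow cytometry into 10 equally populated bins according to green/red fluorescence ratio. Each bead (~65 nL) held fluorescein-starch and about 0.3 cells of a B. subtilis DB104 library expressing mature AmyQ fused to designed signal peptides from the amyE locus, and beads were grown about 13 h at room temperature and stained with nile red before sorting. Bin amplicons were Illumina-sequenced, and the secretion score is the read-frequency-weighted average bin number, normalised to beads per bin, excluding low-abundance sequences.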

Sequence	AmyQ secretion efficiency
MRMLWRSLALCGLALTLAPCPQAAEP	6.73
MRMLWRSLALCGLALTLAPCTGTAQAAEP	1.82
MRMLWRSLALCGLALTLAPCVQAAEP	1.79
MRMLWRSLALCGLALTLAPCWQAAEP	5.47
MRMLWRSRRKCKRRLTLAPCAQAAEP	5.33
MRMLWRSSSQCGLALTLAPCAQAAEP	8.18
MRNLTKFLLLLAFLCMAAQMVFVTHASAEES	3.58
MRNLTKMMNTSLLLAGLCTAAQMVFVTHASAEES	2.48
MRNLTKTKRRKAGLCTAAQMVFVTHASAEES	6.94
MRNLTKTSLLLAGLCQMVFVTHASAEES	3.18
MRNLTKTSLLLAGLCTAAEEEEEDHASAEES	6.56
MRNLTKTSLLLAGLCTAAIMVFVIHASAEES	5.76
MRNLTKTSLLLAGLCTAAIQMVFVTHASAEES	3.32 and 3.1
MRNLTKTSLLLAGLCTAAKKKFVTHASAEES	8.31
MRNLTKTSLLLAGLCTAAQMVFVTHASAADE	2.81
MRNLTKTSLLLAGLCTAAQMVFVTHASAAKR	2.59
MRNLTKTSLLLAGLCTAAQMVFVTHASAAPS	1.69
MRNLTKTSLLLAGLCTAAQMVFVTHASAASK	1.6
MRNLTKTSLLLAGLCTAAQMVFVTHASAATD	2.35
MRNLTKTSLLLAGLCTAAQMVFVTHASADDE	5.02
MRNLTKTSLLLAGLCTAAQMVFVTHASAKKK	3.84
MRNLTKTSLLLAGLCTAAQMVFVTHASCEES	4.5
MRNLTKTSLLLAGLCTAAQMVFVTHASGEES	2.76
MRNLTKTSLLLAGLCTAAQMVFVTHASLEES	3.72

Sequence	AmyQ secretion efficiency
MRNLTKTSLLLAGLCTAAQMVFVTHASSEES	4.13
MRNLTKTSLLLAGLCTAAQMVFVTHCSAEES	2.79
MRNLTKTSLLLAGLCTAAQMVFVTHGSAEES	4.68
MRNLTKTSLLLAGLCTAAQMVFVTHHSAEES	4.26
MRNLTKTSLLLAGLCTAAQMVFVTHISAEES	3.9
MRNLTKTSLLLAGLCTAAQMVFVTHLSAEES	3.52
MRNLTKTSLLLAGLCTAAQMVFVTHMSAEES	3.28
MRNLTKTSLLLAGLCTAAQMVFVTHSSAEES	4.02
MRNLTKTSLLLAGLCTAAQMVFVTHSTASAEES	3.1
MRNLTKTSLLLAGLCTAAQMVFVTHTFTFVGASAEES	7.25
MRNLTKTSLLLAGLCTAAQMVFVTHTSAEES	3.23
MRNLTKTSLLLAGLCTAAQMVFVTHVSAEES	3.09
MRNLTKTSLLLAGLCTAAQMVFVTHWSAEES	8.27
MRNLTKTSLLLAGLCTAAQSEFVTHASAEES	4.61
MRNLTKTSLLLAGLCTAARRKKKKHASAEES	7.09
MRNLTKYTTSKGGLCTAAQMVFVTHASAEES	7.66
MRNLTKYYTTLAGLCTAAQMVFVTHASAEES	3.01
MRNRRKTSLLLAGLCTAAQMVFVTHASAEES	3.33
MRPKRPRKLILSAVLFLSCFFGARQTEASASKR	4.56
MRPLILSAVLFLSCFFGARQTEASASKR	3.63
MRPQFPLILSAVLFLSCFFGARQTEASASKR	4.77
MRPVFPGKGQYVLFLSCFFGARQTEASASKR	6.9
MRPVFPIMNNILLILSAVLFLSCFFGARQTEASASKR	1.84
MRPVFPLILIAVLFLFCFSFGARQTEASASKR	2.07

Sequence	AmyQ secretion efficiency
MRPVFPLILSAVLFLFGARQTEASASKR	5.49
MRPVFPLILSAVLFLSCFDDDDDTEASASKR	4.17
MRPVFPLILSAVLFLSCFEGAEQTEASASKR	3.25
MRPVFPLILSAVLFLSCFFAATVFFASASKR	7
MRPVFPLILSAVLFLSCFFFGARQTEASASKR	1.8
MRPVFPLILSAVLFLSCFFGAREASASKR	1.24
MRPVFPLILSAVLFLSCFFGARQTEASAEEE	2.93
MRPVFPLILSAVLFLSCFFGARQTEASARKR	2.01
MRPVFPLILSAVLFLSCFFGARQTEASASED	3.13
MRPVFPLILSAVLFLSCFFGARQTEASASPF	2.82
MRPVFPLILSAVLFLSCFFGARQTEASASSD	1.96
MRPVFPLILSAVLFLSCFFGARQTEASCSKR	3.44
MRPVFPLILSAVLFLSCFFGARQTEASDSKR	2.12
MRPVFPLILSAVLFLSCFFGARQTEASESKR	2.54
MRPVFPLILSAVLFLSCFFGARQTEASFSKR	2.95
MRPVFPLILSAVLFLSCFFGARQTEASGSKR	1.87
MRPVFPLILSAVLFLSCFFGARQTEASHSKR	2.35
MRPVFPLILSAVLFLSCFFGARQTEASISKR	3
MRPVFPLILSAVLFLSCFFGARQTEASKSKR	2.19
MRPVFPLILSAVLFLSCFFGARQTEASLSKR	3.68
MRPVFPLILSAVLFLSCFFGARQTEASMSKR	2.44
MRPVFPLILSAVLFLSCFFGARQTEASNSKR	2.41
MRPVFPLILSAVLFLSCFFGARQTEASPSKR	2.1
MRPVFPLILSAVLFLSCFFGARQTEASRSKR	2.45

Sequence	AmyQ secretion efficiency
MRPVFPLILSAVLFLSCFFGARQTEASSSKR	3.03
MRPVFPLILSAVLFLSCFFGARQTEASTSKR	2.25
MRPVFPLILSAVLFLSCFFGARQTEASVSKR	2.77
MRPVFPLILSAVLFLSCFFGARQTEASWSKR	4.13
MRPVFPLILSAVLFLSCFFGARQTEASYSKR	2.56
MRPVFPLILSAVLFLSCFFGARQTEESASKR	7.33
MRPVFPLILSAVLFLSCFFGARQTEFSASKR	7.3
MRPVFPLILSAVLFLSCFFGARQTEGSASKR	4.92
MRPVFPLILSAVLFLSCFFGARQTEHSASKR	6.3
MRPVFPLILSAVLFLSCFFGARQTEISASKR	2.64
MRPVFPLILSAVLFLSCFFGARQTEKSASKR	6.8
MRPVFPLILSAVLFLSCFFGARQTELSASKR	3.47
MRPVFPLILSAVLFLSCFFGARQTEMSASKR	3.55
MRPVFPLILSAVLFLSCFFGARQTENSASKR	6.14
MRPVFPLILSAVLFLSCFFGARQTEPSASKR	5.61
MRPVFPLILSAVLFLSCFFGARQTERSASKR	6.76
MRPVFPLILSAVLFLSCFFGARQTESFASASKR	4.97
MRPVFPLILSAVLFLSCFFGARQTESSASKR	3.91
MRPVFPLILSAVLFLSCFFGARQTETSASKR	5.36
MRPVFPLILSAVLFLSCFFGARQTEVSASKR	2.58
MRPVFPLILSAVLFLSCFFGARQTEWSASKR	7.27
